Measurements published in PMC9352680, “A comprehensive thermodynamic model for RNA binding by the Saccharomyces cerevisiae Pumilio protein PUF4”.

T1: PUF4 RNA-binding domain (Saccharomyces cerevisiae, UniProt P25339 537-888)
T1 sequence: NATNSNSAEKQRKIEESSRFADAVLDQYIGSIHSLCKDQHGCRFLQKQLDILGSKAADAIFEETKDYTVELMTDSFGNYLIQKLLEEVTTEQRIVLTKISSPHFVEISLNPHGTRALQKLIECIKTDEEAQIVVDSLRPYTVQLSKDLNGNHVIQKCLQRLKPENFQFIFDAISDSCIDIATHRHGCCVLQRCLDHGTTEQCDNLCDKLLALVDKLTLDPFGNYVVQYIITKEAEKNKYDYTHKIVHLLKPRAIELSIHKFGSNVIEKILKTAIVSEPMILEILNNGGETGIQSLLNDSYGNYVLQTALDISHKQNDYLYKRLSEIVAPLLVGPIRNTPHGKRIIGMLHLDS


Target: T1, PUF4 RNA-binding domain
Assay: Mg; RNA-MaP; 20 mM Na-HEPES pH 7.4, 30 mM KOAc, 0.75 mM MgCl2, 0.1% Tween-20, 5% glycerol, 0.1 mg/mL BSA, 2 mM DTT; 25 C; 0.0125-409.6 nM protein
Settings: tags: N-His6-TEV cleaved; C-SNAP kept, Cy3B-labelled; label: tethered on chip by stalled RNA polymerase

Kd, 0.0219 µM:
UCUCUUUGUAUUAUCAUCUCUU (ssRNA) [Ia_S1_P5E.1_K5.1_C5.1_H5.1_A5.1_F5.1_[T9C]_T5.1]

Kd, 0.0108 µM:
UCUCUUUGUAUUAUGUUCUCUU (ssRNA) [Ib_S1_P5E.1_K5.1_C5.1_H5.1_A5.1_F5.1_[T9G]_[A10T]_T5.1]

Kd, > 2.3 µM:
UCUCUUUAACACUUAUUAAUUCUCUU (ssRNA) [Id_ii_S1_P5E.4_K5.3_C5.2_[C-2T]_[T-1A]_H5.3_A5.1_F5.1_T5.2_[T11A]_[A12T]]
UCUCUUAGACACUUAUUAAUUCUCUU (ssRNA) [Id_ii_S1_P5E.4_K5.3_C5.2_[C-2A]_[T-1G]_H5.3_A5.1_F5.1_T5.2_[T11A]_[A12T]]
UCUCUUUCACACUUAUUAAUUCUCUU (ssRNA) [Id_ii_S1_P5E.4_K5.3_C5.2_[C-2T]_[T-1C]_H5.3_A5.1_F5.1_T5.2_[T11A]_[A12T]]
UCUCUUAAACACUUAUUACAUCUCUU (ssRNA) [Id_ii_S1_P5E.4_K5.3_C5.2_[C-2A]_[T-1A]_H5.3_A5.1_F5.1_T5.2_[T11C]]
UCUCUUACACACUUAUUAGCUCUCUU (ssRNA) [Id_ii_S1_P5E.4_K5.3_C5.2_[C-2A]_[T-1C]_H5.3_A5.1_F5.1_T5.2_[T11G]_[A12C]]
UCUCUUUAACACUUAUUAUAUCUCUU (ssRNA) [Id_ii_S1_P5E.4_K5.3_C5.2_[C-2T]_[T-1A]_H5.3_A5.1_F5.1_T5.2]
UCUCUUUAACACUUAUUACUUCUCUU (ssRNA) [Id_ii_S1_P5E.4_K5.3_C5.2_[C-2T]_[T-1A]_H5.3_A5.1_F5.1_T5.2_[T11C]_[A12T]]
UCUCUUUCACACUUAUUAUUUCUCUU (ssRNA) [Id_ii_S1_P5E.4_K5.3_C5.2_[C-2T]_[T-1C]_H5.3_A5.1_F5.1_T5.2_[A12T]]
UCUCUUUAACACUUAUUAAAUCUCUU (ssRNA) [Id_ii_S1_P5E.4_K5.3_C5.2_[C-2T]_[T-1A]_H5.3_A5.1_F5.1_T5.2_[T11A]]
UCUCUUUAACACUUAUUACAUCUCUU (ssRNA) [Id_ii_S1_P5E.4_K5.3_C5.2_[C-2T]_[T-1A]_H5.3_A5.1_F5.1_T5.2_[T11C]]
UCUCUUUUACACUUAUUAAAUCUCUU (ssRNA) [Id_ii_S1_P5E.4_K5.3_C5.2_[C-2T]_H5.3_A5.1_F5.1_T5.2_[T11A]]
UCUCUUAGACACUUAUUACCUCUCUU (ssRNA) [Id_ii_S1_P5E.4_K5.3_C5.2_[C-2A]_[T-1G]_H5.3_A5.1_F5.1_T5.2_[T11C]_[A12C]]
UCUCUUUCACACUUAUUACAUCUCUU (ssRNA) [Id_ii_S1_P5E.4_K5.3_C5.2_[C-2T]_[T-1C]_H5.3_A5.1_F5.1_T5.2_[T11C]]
UCUCUUAAACACUUAUUACCUCUCUU (ssRNA) [Id_ii_S1_P5E.4_K5.3_C5.2_[C-2A]_[T-1A]_H5.3_A5.1_F5.1_T5.2_[T11C]_[A12C]]
UCUCUUACACACUUAUUAUUUCUCUU (ssRNA) [Id_ii_S1_P5E.4_K5.3_C5.2_[C-2A]_[T-1C]_H5.3_A5.1_F5.1_T5.2_[A12T]]
UCUCUUUCACACUUAUUACUUCUCUU (ssRNA) [Id_ii_S1_P5E.4_K5.3_C5.2_[C-2T]_[T-1C]_H5.3_A5.1_F5.1_T5.2_[T11C]_[A12T]]
UCUCUUUCACACUUAUUAUGUCUCUU (ssRNA) [Id_ii_S1_P5E.4_K5.3_C5.2_[C-2T]_[T-1C]_H5.3_A5.1_F5.1_T5.2_[A12G]]
UCUCUUUUACACUUAUUAACUCUCUU (ssRNA) [Id_ii_S1_P5E.4_K5.3_C5.2_[C-2T]_H5.3_A5.1_F5.1_T5.2_[T11A]_[A12C]]
UCUCUUUCACACUUAUUAUCUCUCUU (ssRNA) [Id_ii_S1_P5E.4_K5.3_C5.2_[C-2T]_[T-1C]_H5.3_A5.1_F5.1_T5.2_[A12C]]
UCUCUUAAACACUUAUUAACUCUCUU (ssRNA) [Id_ii_S1_P5E.4_K5.3_C5.2_[C-2A]_[T-1A]_H5.3_A5.1_F5.1_T5.2_[T11A]_[A12C]]
UCUCUUUAACACUUAUUACGUCUCUU (ssRNA) [Id_ii_S1_P5E.4_K5.3_C5.2_[C-2T]_[T-1A]_H5.3_A5.1_F5.1_T5.2_[T11C]_[A12G]]
UCUCUUAGACACUUAUUAAAUCUCUU (ssRNA) [Id_ii_S1_P5E.4_K5.3_C5.2_[C-2A]_[T-1G]_H5.3_A5.1_F5.1_T5.2_[T11A]]
UCUCUUACACACUUAUUAUAUCUCUU (ssRNA) [Id_ii_S1_P5E.4_K5.3_C5.2_[C-2A]_[T-1C]_H5.3_A5.1_F5.1_T5.2]
UCUCUUUUACACUUAUUAUUUCUCUU (ssRNA) [Id_ii_S1_P5E.4_K5.3_C5.2_[C-2T]_H5.3_A5.1_F5.1_T5.2_[A12T]]
UCUCUUUCACACUUAUUAACUCUCUU (ssRNA) [Id_ii_S1_P5E.4_K5.3_C5.2_[C-2T]_[T-1C]_H5.3_A5.1_F5.1_T5.2_[T11A]_[A12C]]
UCUCUUUUACACUUAUUAUAUCUCUU (ssRNA) [Id_ii_S1_P5E.4_K5.3_C5.2_[C-2T]_H5.3_A5.1_F5.1_T5.2]
UCUCUUAGACACUUAUUACUUCUCUU (ssRNA) [Id_ii_S1_P5E.4_K5.3_C5.2_[C-2A]_[T-1G]_H5.3_A5.1_F5.1_T5.2_[T11C]_[A12T]]

Kd, 0.00322 µM:
UCUCUUGUACACUUAUUACCUCUCUU (ssRNA) [Id_ii_S1_P5E.4_K5.3_C5.2_[C-2G]_H5.3_A5.1_F5.1_T5.2_[T11C]_[A12C]]

Kd, 0.00373 µM:
UCUCUUGUACACUUAUUAUUUCUCUU (ssRNA) [Id_ii_S1_P5E.4_K5.3_C5.2_[C-2G]_H5.3_A5.1_F5.1_T5.2_[A12T]]
